The source of these data is publication PMC4259310.

Test [1] concerns the target Snake Adenovirus 1 (SnAdV-1) fibre head domain, construct 234-345, native (Snake Adenovirus 1 (SnAdV-1)). Description: crystal structure.
Test [2] deals with Snake Adenovirus 1 (SnAdV-1) fibre protein construct 171-345 (Snake Adenovirus 1 (SnAdV-1)). Description: crystal structure.

As to “Snake Adenovirus 1 (SnAdV-1) fibre head domain, construct 234-345, native (domain or fragment)”, the stoichiometry N in test [1] was 3.

The substance “Snake Adenovirus 1 (SnAdV-1) fibre protein construct 171-345 (domain or fragment)” yielded a stoichiometry N in test [2] of 3.
